Broadly, the Kd is the free concentration of one partner at which half of the binding sites on the other are occupied at equilibrium, for simple one-to-one binding. A high value points to weaker binding.

Test [1] deals with T1, H3K9me0 peptide (Homo sapiens, unmethylated K9; fluorescein label; H3(1-20) in mature numbering (initiator Met removed)). Nature of the test: FP; MBP-tagged full-length G9a; lower limit, no saturation.
Test [2] concerns the target unmethylated mononucleosome (H3K9me0), 147 bp 601 DNA 5'-fluorescein-labeled. Nature of the test: FP.
The target of test [3] is H3K9me1 monomethylated mononucleosome (methyl-lysine analog), 147 bp 601 DNA 5'-fluorescein-labeled (monomethyl-lysine analog (MLA) at K9). As to the kind of experiment: FP.
The target of test [4] is H3K9me2 dimethylated mononucleosome (methyl-lysine analog), 147 bp 601 DNA 5'-fluorescein-labeled (dimethyl-lysine analog (MLA) at K9). Nature of the test: FP.
The target in test [5] is T1, H3K9me0 peptide. Nature of the test: FP; lower limit, no saturation.

B1: full-length G9a (enzyme)
chain: MRGLPRGRGLMRARGRGRAAPTGGRGRGRGGAHRGRGRPRSLLSLPRAQASWAPQLPAGLTGPPVPCLPSQGEAPAEMGALLLEKEPRGAAERVHSSLGDTPQSEETLPKANPDSLEPAGPSSPASVTVTVGDEGADTPVGAASLIGDEPESLEGDGGRIVLGHATKSFPSSPSKGGACPSRAKMSMTGAGKSPPSVQSLAMRLLSMPGAQGAATAGPEPSPATTAAQEGQPKVHRARKTMSKPSNGQPPIPEKRPPEVQHFRMSDDMHLGKVTSDVAKRRKLNSGSLSEDLGSAGGSGDIILEKGEPRPLEEWETVVGDDFSLYYDAYSVDERVDSDSKSEVEALAEQLSEEEEEEEEEEEEEEEEEEEEEEEEEDEESGNQSDRSGSSGRRKAKKKWRKDSPWVKPSRKRRKREPPRAKEPRGVNGVGSSGPSEYMEVPLGSLELPSEGTLSPNHAGVSNDTSSLETERGFEELPLCSCRMEAPKIDRISERAGHKCMATESVDGELLGCNAAILKRETMRPSSRVALMVLCEAHRARMVKHHCCPGCGYFCTAGTFLECHPDFRVAHRFHKACVSQLNGMVFCPHCGEDASEAQEVTIPRGDGGTPPIGTAAPALPPLAHDAPGRADTSQPSARMRGHGEPRRPPCDPLADTIDSSGPSLTLPNGGCLSAVGLPPGPGREALEKALVIQESERRKKLRFHPRQLYLSVKQGELQKVILMLLDNLDPNFQSDQQSKRTPLHAAAQKGSVEICHVLLQAGANINAVDKQQRTPLMEAVVNNHLEVARYMVQLGGCVYSKEEDGSTCLHHAAKIGNLEMVSLLLSTGQVDVNAQDSGGWTPIIWAAEHKHIDVIRMLLTRGADVTLTDNEENICLHWASFTGSAAIAEVLLNAQCDLHAVNYHGDTPLHIAARESYHDCVLLFLSRGANPELRNKEGDTAWDLTPERSDVWFALQLNRKLRLGVGNRAVRTEKIICRDVARGYENVPIPCVNGVDGEPCPEDYKYISENCETSTMNIDRNITHLQHCTCVDDCSSSNCLCGQLSIRCWYDKDGRLLQEFNKIEPPLIFECNQACSCWRSCKNRVVQSGIKVRLQLYRTAKMGWGVRALQTIPQGTFICEYVGELISDAEADVREDDSYLFDLDNKDGEVYCIDARYYGNISRFINHLCDPNIIPVRVFMLHQDLRFPRIAFFSSRDIRTGEELGFDYGDRFWDIKSKYFTCQCGSEKCKHSAEAIALEQSRLARLDPHPELLPDLSSLPPINT
Turning to B1, the equilibrium dissociation constant (Kd) with H3K9me0 peptide [1] is > 66 µM.

B2: G9aS-GLP (protein)
chain 1: AHDAPGRADTSQPSARMRGHGEPRRPPCDPLADTIDSSGPSLTLPNGGCLSAVGLPPGPGREALEKALVIQESERRKKLRFHPRQLYLSVKQGELQKVILMLLDNLDPNFQSDQQSKRTPLHAAAQKGSVEICHVLLQAGANINAVDKQQRTPLMEAVVNNHLEVARYMVQLGGCVYSKEEDGSTCLHHAAKIGNLEMVSLLLSTGQVDVNAQDSGGWTPIIWAAEHKHIDVIRMLLTRGADVTLTDNEENICLHWASFTGSAAIAEVLLNAQCDLHAVNYHGDTPLHIAARESYHDCVLLFLSRGANPELRNKEGDTAWDLTPERSDVWFALQLNRKLRLGVGNRAVRTEKIICRDVARGYENVPIPCVNGVDGEPCPEDYKYISENCETSTMNIDRNITHLQHCTCVDDCSSSNCLCGQLSIRCWYDKDGRLLQEFNKIEPPLIFECNQACSCWRSCKNRVVQSGIKVRLQLYRTAKMGWGVRALQTIPQGTFICEVVGELISDAEADVREDDSYLFDLDNKDGEVYCIDARYYGNISRFINHLCDPNIIPVRVFMLHQDLRFPRIAFFSSRDIRTGEELGFDFGDRFWDIKSKYFTCQCGSEKCKHSAEAIALEQSRLARLDPHPELLPDLSSLPPINT
chain 2: PGQEKSLAAEGRADTTTGSIAGAPEDERSQSTAPQAPECFDPAGPAGLVRPTSGLSQGPGKETLESALIALDSEKPKKLRFHPKQLYFSARQGELQKVLLMLVDGIDPNFKMEHQSKRSPLHAAAEAGHVDICHMLVQAGANIDTCSEDQRTPLMEAAENNHLDAVKYLIKAGAQVDPKDAEGSTCLHLAAKKGHYDVVQYLLSNGQMDVNCQDDGGWTPMIWATEYKHVELVKLLLSKGSDINIRDNEENICLHWAAFSGCVDIAEILLAAKCDLHAVNIHGDSPLHIAARENRYDCVVLFLSRDSDVTLKNKEGETPLQCASLSSQVWSALQMSKALRDSAPDKPVAVEKTVSRDIARGYERIPIPCVNAVDSELCPTNYKYVSQNCVTSPMNIDRNITHLQYCVCVDDCSSSTCMCGQLSMRCWYDKDGRLLPEFNMAEPPLIFECNHACSCWRNCRNRVVQNGLRARLQLYRTQDMGWGVRSLQDIPLGTFVCEYVGELISDSEADVREEDSYLFDLDNKDGEVYCIDARFYGNVSRFINHHCEPNLVPVRVFMSHQDLRFPRIAFFSTRLIQAGEQLGFDYGERFWDVKGKLFSCRCGSSKCRHSSAALAQRQASAAQEPQENGLPDTSSAAAADPL
Consider B2, for which the Kd in test [2] is > 70 µM.

B3: GLP ANK-SET homodimer (complex)
chain: QEKSLAAEGRADTTTGSIAGAPEDERSQSTAPQAPECFDPAGPAGLVRPTSGLSQGPGKETLESALIALDSEKPKKLRFHPKQLYFSARQGELQKVLLMLVDGIDPNFKMEHQSKRSPLHAAAEAGHVDICHMLVQAGANIDTCSEDQRTPLMEAAENNHLDAVKYLIKAGAQVDPKDAEGSTCLHLAAKKGHYDVVQYLLSNGQMDVNCQDDGGWTPMIWATEYKHVELVKLLLSKGSDINIRDNEENICLHWAAFSGCVDIAEILLAAKCDLHAVNIHGDSPLHIAARENRYDCVVLFLSRDSDVTLKNKEGETPLQCASLSSQVWSALQMSKALRDSAPDKPVAVEKTVSRDIARGYERIPIPCVNAVDSELCPTNYKYVSQNCVTSPMNIDRNITHLQYCVCVDDCSSSTCMCGQLSMRCWYDKDGRLLPEFNMAEPPLIFECNHACSCWRNCRNRVVQNGLRARLQLYRTQDMGWGVRSLQDIPLGTFVCEYVGELISDSEADVREEDSYLFDLDNKDGEVYCIDARFYGNVSRFINHHCEPNLVPVRVFMSHQDLRFPRIAFFSTRLIQAGEQLGFDYGERFWDVKGKLFSCRCGSSKCRHSSAALAQRQASAAQEPQENGLPDTSSAAAADPL
In test [3], B3 returned a Kd of 5 µM.

B4: G9a ANK-SET homodimer (complex)
chain: DAPGRADTSQPSARMRGHGEPRRPPCDPLADTIDSSGPSLTLPNGGCLSAVGLPPGPGREALEKALVIQESERRKKLRFHPRQLYLSVKQGELQKVILMLLDNLDPNFQSDQQSKRTPLHAAAQKGSVEICHVLLQAGANINAVDKQQRTPLMEAVVNNHLEVARYMVQLGGCVYSKEEDGSTCLHHAAKIGNLEMVSLLLSTGQVDVNAQDSGGWTPIIWAAEHKHIDVIRMLLTRGADVTLTDNEENICLHWASFTGSAAIAEVLLNAQCDLHAVNYHGDTPLHIAARESYHDCVLLFLSRGANPELRNKEGDTAWDLTPERSDVWFALQLNRKLRLGVGNRAVRTEKIICRDVARGYENVPIPCVNGVDGEPCPEDYKYISENCETSTMNIDRNITHLQHCTCVDDCSSSNCLCGQLSIRCWYDKDGRLLQEFNKIEPPLIFECNQACSCWRSCKNRVVQSGIKVRLQLYRTAKMGWGVRALQTIPQGTFICEYVGELISDAEADVREDDSYLFDLDNKDGEVYCIDARYYGNISRFINHLCDPNIIPVRVFMLHQDLRFPRIAFFSSRDIRTGEELGFDYGDRFWDIKSKYFTCQCGSEKCKHSAEAIALEQSRLARLDPHPELLPDLSSLPPINT
As for B4, the values for the Kd (in test [3]; in test [4]; in the test with H3K9me0 peptide [5]) were 14.8 µM, 18.4 µM and > 100 µM, respectively.

B5: G9a-GLP ANK-SET heterodimer (complex)
chain 1: B4 chain
chain 2: B3 chain
Take B5: the figures for the Kd in test [3] and in test [4] were 2.26 µM and 4.76 µM, respectively.

(Values after publication PMC8564726 (2021).)
